One assay deals with T1, CpsB (rCpsB) (Streptococcus suis, UniProt Q9X4U8).
T1 construct: gene cps2D; rs02785 in pET-28a, His-tag, expressed in E. coli BL21(DE3), HisTrap purified; capsule locus tyrosine phosphatase (PHP type, Mn-dependent)
Kind of assay: colorimetric phosphatase assay, absorbance […] nm. The following applies: 50 nM enzyme, 16 uM pNPP, 1 mM MnCl2, 20 mM Tris pH 8.0, 150 mM NaCl, 37 °C. Type of assay: biochemical.

The target in assay [1] is CcpS, as crystallised (Streptococcus suis). In words: crystal structure; sitting-drop vapour diffusion at 277 K; 0.1 M Tris-HCl pH 8.0, 15% ethanol; 1.6 Å; molecular replacement with IreB (PDB 5US5).
Assay [2] addresses rCpsB-His (Streptococcus suis). Kind of assay: SPR.

In the case of `O=[N+]([O-])c1ccc(OP(=O)(O)O)cc1` [pNPP, p-nitrophenyl phosphate], the relative activity entry at CpsB (rCpsB) was “Colorimetric phosphatase assays of CpsB activity were performed using p-nitrophenyl phosphate (pNPP)”. For orientation: stoichiometry N means the number of molecules, sites or subunits per partner or assembly. As for CcpS, as crystallised (natural protein), the stoichiometry N in assay [1] is 2. Compound rCcpS-T4VT7V (natural protein) displayed a fold higher affinity than rCcpS-T4ET7E in assay [2] of more than 10 fold.
